Source: patent US20080219985A1 (published 2008)
Where “and” joins values, the source holds several entries; their conditions need not be identical. Equal values may be shown once. Read-outs that look alike come from different tables or passages of the source.

Key:
[1] = molecular target: T1, PROK2 receptor on Wky12-22 cells (rat aortic smooth muscle cells) (rat); test: saturation binding of I-125 PROK2 to Wky12-22 cell monolayers at 4 C, two-site nonlinear regression, low affinity site
T1 construct: also called PROK2 receptors GPCR73a and b on Wky12-22 cells; ratGPR73a
T1 sequence (Q4AEG4 whole entry): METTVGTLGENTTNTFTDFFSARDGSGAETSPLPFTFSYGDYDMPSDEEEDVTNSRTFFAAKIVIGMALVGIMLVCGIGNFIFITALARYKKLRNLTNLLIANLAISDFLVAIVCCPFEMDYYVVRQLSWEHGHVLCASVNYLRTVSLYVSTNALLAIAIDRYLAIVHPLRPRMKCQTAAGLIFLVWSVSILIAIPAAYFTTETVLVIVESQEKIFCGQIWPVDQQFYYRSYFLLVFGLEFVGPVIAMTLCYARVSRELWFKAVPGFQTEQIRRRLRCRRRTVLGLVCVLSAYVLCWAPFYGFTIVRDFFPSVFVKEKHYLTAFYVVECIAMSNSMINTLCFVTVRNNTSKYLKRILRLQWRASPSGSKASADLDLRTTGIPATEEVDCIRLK
Experimental: (§1) The binding of PROK2 to Wky12-22 cells was assessed using I¹²⁵-radiolabeled PROK2. Wky12-22 cells were seeded at low cell density and cultured for three to four days until they reached about 70% confluency. The cells were placed on ice, the medium was removed, and the monolayers were washed. The cells were incubated with increasing amounts of I¹²⁵-PROK2 in the absence (total binding) and presence (nonspecific binding) of a large excess of unlabeled PROK2. After various times at 4° C., the binding media were removed, the monolayers were washed, and the cells were solubilized with a small volume of 1.0 N NaOH. Cell associated radioactivity was determined in a gamma counter. The specific binding of I¹²⁵-PROK2 was calculated as the difference between the total and nonspecific values. The measured radioacitivity was normalized to cell number that was determined on a set of parallel cultures. Nonlinear regression using a two-site model was used to fit the binding data for determination of Kd and Bmax.

[2] = molecular target: T1, PROK2 receptor on Wky12-22 cells (rat …); test: saturation binding of I-125 PROK2 to Wky12-22 cell monolayers at 4 C, two-site nonlinear regression, high affinity site
Experimental: as §1

GPCR73a receptor [3] = molecular target: T2, GPCR73a receptor (human, UniProt Q8TCW9 1-393); test: cell-based or functional assay
T2 sequence (Q8TCW9 whole entry): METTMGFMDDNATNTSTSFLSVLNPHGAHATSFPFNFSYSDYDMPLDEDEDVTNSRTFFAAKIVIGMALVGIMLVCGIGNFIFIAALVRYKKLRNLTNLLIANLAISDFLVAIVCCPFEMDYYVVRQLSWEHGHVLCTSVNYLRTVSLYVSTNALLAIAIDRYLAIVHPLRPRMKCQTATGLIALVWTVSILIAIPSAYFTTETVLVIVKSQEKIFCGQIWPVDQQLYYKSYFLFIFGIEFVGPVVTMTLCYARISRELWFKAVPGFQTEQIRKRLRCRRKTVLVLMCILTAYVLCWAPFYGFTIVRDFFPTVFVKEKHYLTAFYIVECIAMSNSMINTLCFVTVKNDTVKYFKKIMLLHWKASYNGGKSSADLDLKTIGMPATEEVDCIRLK

[4] = molecular target: T1, PROK2 receptor on Wky12-22 cells (rat …); test: cell-based or functional assay
GPCR73b receptor [5] = molecular target: T3, GPCR73b receptor (Homo sapiens (Human), UniProt Q8NFJ6 1-384); test: cell-based or functional assay
T3 sequence (Q8NFJ6 whole entry): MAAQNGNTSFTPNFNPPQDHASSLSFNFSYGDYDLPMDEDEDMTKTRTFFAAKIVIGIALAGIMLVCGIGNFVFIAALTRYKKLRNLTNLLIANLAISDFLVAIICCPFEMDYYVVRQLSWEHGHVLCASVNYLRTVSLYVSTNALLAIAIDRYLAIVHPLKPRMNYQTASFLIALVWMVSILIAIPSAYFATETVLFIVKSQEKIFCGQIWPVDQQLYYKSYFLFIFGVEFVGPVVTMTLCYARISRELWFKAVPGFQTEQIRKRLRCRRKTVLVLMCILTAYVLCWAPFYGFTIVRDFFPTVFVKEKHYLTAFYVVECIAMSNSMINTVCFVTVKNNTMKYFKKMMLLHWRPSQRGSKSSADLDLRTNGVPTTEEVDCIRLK

GPCR73a receptor [6] = molecular target: T2, GPCR73a receptor; test: cell-based or functional assay; remark: listed apart in the source
GPCR73b receptor [7] = molecular target: T3, GPCR73b receptor; test: cell-based or functional assay; remark: listed apart in the source
GPCR73a receptor [8] = molecular target: T2, GPCR73a receptor; test: cell-based or functional assay; remark: listed apart in the source
[9] = molecular target: PROK2 receptor on 4T1.2 murine breast cancer cells (mouse); test: cell-based or functional assay

B1: human PROK2 with a carboxy-terminal Glu-Glu tag, produced in baculovirus (PROK2cee) (ligand)
chain: AVITGACDKDSQCGGGMCCAVSIWVKSIRICTPMGKLGDSCHPLTRKVPFFGRRMHHTCPCLPGLACLRTSFNRFICLAQKGLEYMPMD
notes: also called huPROK2-CEE-Bv; Baculovirus-expressed PROK2
[1]
  Kd: 31 nM
[2]
  Kd: 1.5 nM
GPCR73a receptor [3]
  SRE-luciferase fold-induction at 1 ng/ml, PROK2 heated at 56 C for 30 minutes: 1.8 fold-induction
  SRE-luciferase fold-induction at 1 ng/ml, fresh PROK2: 2.5 fold-induction
  SRE-luciferase fold-induction at 3.2 ng/ml, PROK2 heated at 56 C for 30 minutes: 3.7 fold-induction
  SRE-luciferase fold-induction at 3.2 ng/ml, fresh PROK2: 7.1 fold-induction
  SRE-luciferase fold-induction at 10 ng/ml, PROK2 heated at 56 C for 30 minutes: 10 fold-induction
  SRE-luciferase fold-induction at 10 ng/ml, fresh PROK2: 13.1 fold-induction
  SRE-luciferase fold-induction at 32 ng/ml, PROK2 heated at 56 C for 30 minutes: 14.8 fold-induction
  SRE-luciferase fold-induction at 32 ng/ml, fresh PROK2: 18.7 fold-induction
  SRE-luciferase fold-induction at 100 ng/ml, PROK2 heated at 56 C for 30 minutes: 18.6 fold-induction
  SRE-luciferase fold-induction at 100 ng/ml, fresh PROK2: 20.5 fold-induction
[4]
  EC50 of ERK-Map kinase activity in Wky12-22 cells: 0.5 nM and ~5 ng/ml

B2: human PROK2 produced in E. coli (in house) (ligand)
chain: AVITGACDKDSQCGGGMCCAVSIWVKSIRICTPMGKLGDSCHPLTRKVPFFGRRMHHTCPCLPGLACLRTSFNRFICLAQK
GPCR73b receptor [5]
  SRE-luciferase fold-induction at 1 ng/ml: 0.7 fold-induction
  SRE-luciferase fold-induction at 3.2 ng/ml: 1.3 fold-induction
  SRE-luciferase fold-induction at 10 ng/ml: 1.9 fold-induction
  SRE-luciferase fold-induction at 32 ng/ml: 3 fold-induction
  SRE-luciferase fold-induction at 100 ng/ml: 4.7 fold-induction
  SRE-luciferase fold-induction at 320 ng/ml: 6.3 fold-induction
  SRE-luciferase fold-induction at 1000 ng/ml: 7.1 fold-induction
GPCR73a receptor [6]
  SRE-luciferase fold-induction at 1 ng/ml: 1.9 fold-induction
  SRE-luciferase fold-induction at 3.2 ng/ml: 4 fold-induction
  SRE-luciferase fold-induction at 10 ng/ml: 8.4 fold-induction
  SRE-luciferase fold-induction at 32 ng/ml: 15 fold-induction
  SRE-luciferase fold-induction at 100 ng/ml: 19 fold-induction
  SRE-luciferase fold-induction at 320 ng/ml: 20.7 fold-induction
  SRE-luciferase fold-induction at 1000 ng/ml: 17.8 fold-induction
GPCR73b receptor [7]
  SRE-luciferase fold-induction at 1 ng/ml: 1 fold-induction
  SRE-luciferase fold-induction at 3.2 ng/ml: 1.2 fold-induction
  SRE-luciferase fold-induction at 10 ng/ml: 1.7 fold-induction
  SRE-luciferase fold-induction at 32 ng/ml: 2.6 fold-induction
  SRE-luciferase fold-induction at 100 ng/ml: 4.4 fold-induction
  SRE-luciferase fold-induction at 320 ng/ml: 5.2 fold-induction
  SRE-luciferase fold-induction at 1000 ng/ml: 4.8 fold-induction
GPCR73a receptor [8]
  SRE-luciferase fold-induction at 1 ng/ml: 4.1 fold-induction
  SRE-luciferase fold-induction at 3.2 ng/ml: 7.6 fold-induction
  SRE-luciferase fold-induction at 10 ng/ml: 10.2 fold-induction
  SRE-luciferase fold-induction at 32 ng/ml: 14.1 fold-induction
  SRE-luciferase fold-induction at 100 ng/ml: 17.6 fold-induction
  SRE-luciferase fold-induction at 320 ng/ml: 22 fold-induction
  SRE-luciferase fold-induction at 1000 ng/ml: 13.9 fold-induction

B3: human PROK2 (preparation not stated for the assay) (ligand)
chain: AVITGACDKDSQCGGGMCCAVSIWVKSIRICTPMGKLGDSCHPLTRKVPFFGRRMHHTCPCLPGLACLRTSFNRFICLAQK
[9]
  ERK phosphorylation in 4T1.2 cells (BIO-PLEX phospho-protein assay), maximal at 100 ng/ml PROK2: 1.8 fold
[4]
  ERK 1/2 phosphorylation in Wky12-22 cells, 15 minutes after 100 ng/ml PROK2: 11 fold induction over basal
  JNK phosphorylation in Wky12-22 cells, 15 minutes after 100 ng/ml PROK2: 3 fold
